These results are taken from the DeepSol protein solubility set.

The nature of the series: soluble on expression in E. coli; label from the status in PepcDB or PDB records.
As for “MSRVVLNVDSYEGNDTPSAEIARFVVLYGKASTRKHKIWEGDGLLVCFTDSCLLKSEDERDVICRSSALKGLDQLEDGRIINIGSWSVEIQERIATGPPQKPISAQKPEIQSPMPPMTPGNSENVENRKRGGFSSPFLGIELPKPLSKRSATFVPPLIGSESSSSGGSSSSTIQEKIPPFILNEQDILDRKTTSAVTVDTRFARHLRPHQKSGIQFIFDRLRRGSGKNGGGGGAILADDMGLGKSLQTMAATWALLKGSKTAQQLANSCLIIVPSSLVNNWKAEFDKWWRLMRFPAVIALTANDITTYQSTIKLMPYLVISYDLAQRHVEKLKIIRFDVMVCDEGHKLKNLDGKLRKTLLSLEIPRRLILTGTPMQNDFEEFYSLLDFVRPSVFGSIVEFRKMCSDRPEQLNELIDECMLRRTAADVDLKHLPEKHEYILFCAASPIQKHVHSEICDYMTGDALSLIFFARQLANHPKLLLDNLREKTEKSKAHKHSPLLLAFDGAHMPRGGVKESGKLTALVDMIKCFRLLQECTVIVSNYIETLDMIQQLCEYLNFKVLRLDGKTQVPDRQKLVRTFNDHRDPSNIFLLSTKAGGVGLNLIGASRLVLFDSDWNPANDQQAMARIWRDGQVRPCHIYRLITTGTIEEKMLQRQIKKTGLGCVIDAIEVGDTIATFTDEDLKDIFTFTGSATECNTHDLCECPCDGCGMLENEMDEEDDGDDVVENDAEKIDKSGKIDKIDSDDDEEADDEELEADVTDEVVEDSQEPPEATKPAVAAAGLRTIASLAELSRWRHFSPRHADTWHHFMTNAGLSQVDTDVELTFAFYQESQY”, the “soluble on expression in E. coli” value is “not soluble”.
With “MKNLVGRFMRYVTFDTQSKPKNHHCPSSTGQKVFAQALYEELLELGLSDVSLDDHGYVMAKLPSNVNYPVPAIGFIAHMDTSPDACGKHVKPQIVEDYQGGDIALGKGDEVLSPIQYPDLHLLHGYNLITTDGTTLLGADNKAGIAEIITAMEILLADPSIPHGDISIAFTPDEEIGRGANHFDVAKFAAQWAYTIDGGPIGELEYENFNAATATVVCHGVNVHPGTAKDKMVNAMHIAAQFILMMPENETPQHTEGYQGFYHLSGATMSVAKSELKYILRDFEAIGLQARQALMQAKVAELNQQLKKGRVEVSFEQSYSNMKEKVEPHPHIIELAKQAMVACDVEPKIKPIRGGTDGARLSFMGLPCPNIFTGGYNFHGIHEFITIEGMEAAVQVIVKLAEKTALHYRQ”, the “soluble on expression in E. coli” value is on record as “not soluble”.
The same measure for “MGSDKIHHHHHHADNPVVQTLYTTDPAPMVYNGTCYLYTGHDEDGSTWYTMKDWRCYSSTDMVNWTDNGSPLAYNTFSWAKGDAWAGQCIPRNGKFYYYVPVTQKSGGMAIGVAVSNSPTGPFVDALGHPLAYTGTGDIDPTVFIDNDGQAYLYWGNPNLYYVKLNQDMISYSGKIVQVPLTTAGFGVRKGNSSRPTLYEEGPWFYKRNGMYYMVYAAGGIPEYISYSTSKSPTGPWYYKGVIMPSQGRSFTNHPGVIDFKGNSYFFYHNGALPGGSGFTRSVCIEQFKYNADGTFPTINMTTTGVSGIGNLNPYTQNEAETICWESNVKTEKCSEGGMDVCNIQNNSWIKVKGVNFDSGAASFNARVASATNGGNIELHLDSPSGTLIGTCHVNSTGGWQSWVTNSCNVSGAKGIHDLYLKFTGGNGYLFNVNWWKFNGTKTVSTR”: “not soluble”.
“MSLNLVSEQLLAANGLKHQDLFAILGQLAERRLDYGDLYFQSSYHESWVLEDRIIKDGSYNIDQGVGVRAISGEKTGFAYADQISLLALEQSAQAARTIVRDSGDGKVQTLGAVEHSPLYTSVDPLQSMSREEKLDILRRVDKVAREADKRVQEVTASLSGVYELILVAATDGTLAADVRPLVRLSVSVLVEEDGKRERGASGGGGRFGYEFFLADLDGEVRADAWAKEAVRMALVNLSAVAAPAGTMPVVLGAGWPGVLLHEAVGHGLEGDFNRRGTSVFSGQVGELVASELCTVVDDGTMVDRRGSVAIDDEGTPGQYNVLIENGILKGYMQDKLNARLMGMTPTGNGRRESYAHLPMPRMTNTYMLPGKSTPQEIIESVEYGIYAPNFGGGQVDITSGKFVFSTSEAYLIENGKVTKPVKGATLIGSGIETMQQISMVGNDLKLDNGVGVCGKEGQSLPVGVGQPTLKVDNLTVGGTA”: the “soluble on expression in E. coli” value was “soluble”.
For “MIDQHQYIERESGSVCNERLFGDRLIRLLYHGARENAPFLFKMATSSWSSGLLGFINFDLPFGSNRRFLEECGVDLDECLDPPESLDTPRKVFERRIRYEQCRPMPEVQWAVVSPADARVLVGSFRDTSALFLKEKFFDFEELLGRHKEEWLRAFTGGEFAVFRLTPDKYHYNHTPVAGTVRDIYEIDGGYHSCNPGAVVIEATPFSKNRRVVTVIDTDVPGGTGVGLVAMIEVVALMIGQIVQCYSYEGYTAPRPVEPGMFLRRGVPKSLYRPGSSTDVLIFQRDRMHFADDIVRNMHDTRAASRFSHGFGRPLVETDVKVRSLIAVAVTNLEHHHHHH”, the “soluble on expression in E. coli” value is given as “not soluble”.
The result for “RPAEEIIQGQIEVTEYRVSSKVPGRIKELRVSEGQQVQAGDTLAVIEAPDVAAKMEQAKAAEAAAQAQNAKALKGARSEQIQAAYEMWQKAQAGVAIATKTHQRVQNLYDQGVVPAQKLDEATAQRDAAIATQKAAEAQYNMARNGAEREDKLAASALVDRARGAVAEVESYINETYLIAPRAGEVSEIFPKAGELVGTGAPIMNIAEMGDMWASFAVRED” reads “not soluble”; that for “MSAQAAKVSKKELNSNHDGADETSEKEQQEAIEHIDEVQNEIDRLNEQASEEILKVEQKYNKLRQPFFQKRSELIAKIPNFWVTTFVNHPQVSALLGEEDEEAMHYLTRVEVTEFEDIKSGYRIDFYFDENPYFENKVLSKEFHMNESGDPSSKSTEIKWKSGKDMTKRSSQTQNKASRKRQHEEPESFFTWFTDHSDAGADELGEVIKDDIWPNPLQYYLVPDM”, “soluble”.
The same measure for “VKLTDVDFAVEASGMVRAFNQAGVLDVSDVHVAQRLCALAGESDERVALAVAVAVRALRAGSVCVDLLSIARVAGHDDLPWPDPADWLAAVRASPLLADPPVLHLYDDRLLYLDRYWREEEQVCADLLALLTSRRPAGVPDLRRLFPTGFDEQRRAAEIALSQGVTVLTGGPGTGKTTTVARLLALVAEQAELAGEPRPRIALAAPTGKAAARLAEAVRREMAKLDATDRARLGDLHAVTLHRLLGAKPGARFRQDRQNRLPHNVIVVDETSMVSLTLMARLAEAVRPGARLILVGDADQLASVEAGAVLADLVDGFSVRDDALVAQLRTSHRFGKVIGTLAEAIRAGDGDAVLGLLRSGEERIEFVDDEDPAPRLRAVLVPHALRLREAALLGASDVALATLDEHRLLCAHRDGPTGVLHWNRRVQAWLAEETGQPPWTPWYAGRPLLVTANDYGLRVYNGDTGVVLAGPTGLRAVISGASGPLDVATGRLGDVETMHAMTIHKSQGSQVDEVTVLMPQEDSRLLTRELLYTAVTRAKRKVRVVGSEASVRAAIARRAVRASGLRMRLQSTGCG”: “soluble”; for “MLWQQKSFTEQTEQGTLYIVPTPIGNLEDMTFRAVRTLQEADVIAAEDTRQTKKLLAHFGIHTPLVSYHEHNKYASGRQLVEWLKEGKTVALVSDAGMPGISDPGYELIAAALAERCRVVPLPGANAALTALVASGLPTDRFLFVGFLKRAKKEKKEQLLSLKTAAETLIFYEAPHRLKETLALMYDIFGNRRIALGRELTKRFEEFIRGDLSDAVAWAEEHDIRGEFCLIVEGARDGNKQEQEGEEWWQPLSLVEHVDYYIREHSLSVKEAVKQAASDRNMSKRDVYRQYHQQQEEEKKEFL”: “not soluble”; for “MEISNVYVPPRSSSSNHARLMTDFSNIFQTKSKSIISGDVNAHHSAWHSEGSEDTRGRELAELIDLHPDLIIQNEQVHTRADTYSISSPDITICTADLATKCHWSTLYKLGSDHIPMKLKINQAATPKRPKRLVANFKKANWQLFRDHIESRINGYSGPMDAIPMEKFFNKVILEADKKAVPKGSIDPKLKVDPKPLRLLAKEIADRETRNPLDPEIPILTRELATKRAERKNSEWRKKAHDQNAKRKSDVSSFWKLIKGVTKGRQYKGPVAFGDGLPKTGATIANKMAKSLVEAGRTKISHDEELKWRKNVRRNKRISKIAPLQDRITSIELHNMAIKMSPSAAIGPDGIAQIHIRKLPMCGYSFLAYLYNVSLSTNIIPDKWKKANVIMIPKPKKDPAIASSYRPISLLSPIAKLLEKAILKRIKNSIESPAHQHGFKPEHSTTTAVIQVTNDIIGGLNMKNPPERAIMACLDLRAAFDKVPTKKLCNDLMEAQGIEPKIKLWLGNYLHKRLIRTSHDNHWSKWHTLLGGVPQGSVISPNLFTFYLKDMPTQQDTMLISYADDMSIIARDKKIEKAAEKVQLHIDEIAKYLKERGMSISAEKSTVTVFSCDPKEHKTKPDIYWMDDPIPVINAPKLLGITLNTMTGTKDHVGNAIKSMQNKTRVIKSMAGTSWGNDRETMLYTTQALIKPTALYGAPAWTSLLSDTNLEKLEIAYRSALRACVGLTKDTPTDHIYQECRVLPLKEEYKLATQQMYLAAIKSNTHPCRDLKAKGQLERTSKPPRIPPLKLSDSEKLRLDNIPGDKTETQKKNHTKLVADFIRNAPNNRILNKPPPRVNYRDERTLPKETRCELARLRCGHSLLVEKYKARLEERQIKKCLNCGDEEGDVQHLLSCLQTPVPLEELWTSPLTVAAALGLPTKTPFDPGGGH”: “not soluble”.
The same measure for “MIIGIDVGGTNTDAAIVSDEIKTIKLPNEAGIGGILKEISKEANLIEEKVVVSTSWPLNLIISKFSESRTLSLVIPGPGLNYSEYGEVLKGYVNHRGDVVEDIDEYEIAAIFRENSYDNVAISSKFSVRNGSLEDRVAEIVRNYVEDYRIALSHYAGGMNYPARIHTTVVNAKIRETVYRLTELIKAYAGDFYYFKGDGGIVPYTIALNNPSELYNSSPAAVALGAVYLTGEKNALVVDIGGTSTDFVEVIDGMPKIVEGIELAGRKTLIRCVDSVSIPFGGDSVVENGKLVPVCSKPIAFGGESFTLTDALNCAGYEIGDYRSSRKYECDVEKALNQFVSLAATTVREIGCKKIVGTGYLAPYLIPEVAKAAGVEYVIPDHYESANAVGVAVSRVSLTLYVRIDTEKCFAAYNGHTESCPFKPGSLPDDEQILEVAKEKVVEVAKKFGASEEELGKVRTVYFNSFTVVRGGMKRGVIADVIVQIEPGIRYGGLAAALEHHHHHH”: “not soluble”; for “SQQALRILEVRSAYCKNDFEWDNMKRLAFKNVDDSNTRLMREYVLETSHVETDSDK”: “soluble”; for “MSLELSDCSVPLTKEDIKDFEMELNIKIPAAMKNFYLKFNGGMPSPYCFQPQDEDLDWVEINAFFPIKERTNAFETIEVIAKDIWSKNLMPCNLLPFAMDSGGNYYTLNLKNKKIYYYLTDEWDENASKEYNFETNTRYIAQSFNYFINHFIEEEEEGHHHHHH”: “soluble”.
As to “MPGITFKEDANERGRQIEHWPLLKNGSIFVIADDGTRYFQEDAKHRHGHVYTHGSWLIPMNNQHPYLIFDQTQYDAFKQEESQAGQLPYPKFMTKLVSAPTIAQLAAKLGVPANNLQQTVTDFNHYTEVGRDFEFGRDPQTMRQLDDGPYYAIAALEHHHHHH”, the “soluble on expression in E. coli” value was “soluble”.
As to “EPNRLIKEKSPYLLQHAYNPVDWYPWGEEAFEKARKENKPVFLSIGYSTCHWCHMMAHESFEDEEVAGLMNEAFVSIKVDREERPDIDNIYMTVCQIILGRGGWPLNIIMTPGKKPFFAGTYIPKNTRFNQIGMLELVPRIKEIWEQQHEEVLDSAEKITSTIQEMIKESSG”, the “soluble on expression in E. coli” value was “soluble”.
The same measure for “MSLNNPYIKMIGAHGTALGDIYGHVTLENFDNTDIYGTEINLVGQINIGETDFNLYGQVFDKSMPVWGETNTLLGLSWDKNYDNTYVQLAFAAHIVNATYKAFDSNFDEQGFNGGYAYLNISHDLSLFDQDFKFVWWQEFYFGRNEQYLELAGDMEDFGFNGQLRANWIINNNWSVGVSYRYAENNLGKKGYHDAFFYSVQYKFEGHHHHHH”: “not soluble”.
On to “MLSERMLKALNDQLNRELYSAYLYFAMAAYFEDLGLEGFANWMKAQAEEEIGHALRFYNYIYDRNGRVELDEIPKPPKEWESPLKAFEAAYEHEKFISKSIYELAALAEEEKDYSTRAFLEWFINEQVEEEASVKKILDKLKFAKDSPQILFMLDKELSARAPKLPGLLMQGGE”, for which the “soluble on expression in E. coli” value was “soluble”.
